Measured values reported in US20240327506A1, “METHODS AND COMPOSITION FOR THE SELECTIVE ENHANCEMENT OF ADOPTIVE CELL THERAPY” (MaineHealth, priority 2023, published 2024).

Biological target: T1, β3 integrin (Homo sapiens, UniProt P05106+P06756)
T1 construct: we next stimulated human Jurkat T-cells or primary CD8+ T-cells with a synthetic version of the soluble RGDKGE; endogenous in cells; host or cells: Jurkat T-cells
Experiment: Western blot of β3 integrin phosphorylation in Jurkat T-cells after peptide stimulation
Type: cell-based
Conditions: compared to control peptide CP
Protocol: FIGS. 2A-2F. Detection of RGDKGE (SEQ ID NO: 1)-containing collagen peptide in malignant tumor cells and expression of key signaling molecules in T-cells. Briefly, whole cell lysates and serum free concentrated conditioned medium was prepared from tumor cells lines. FIG. 2A. Western blot analysis of whole cell lysates from human C8161 and murine B16F10 melanoma cells for the expression of the low molecular weight 16 kDa RGDKGE (SEQ ID NO: 1)-containing collagen peptide (XL313) or actin as a loading control. FIG. 2B. […]
Whole cell and CAM tissue lysates were collected in RIPA buffer (10 mM Tris-HCl, pH 8.0; 1 mM EDTA; 0.5 mM EGTA; 1% Triton X-100; 0.1% Sodium Deoxycholate; 0.1% SDS; 140 mM NaCl) supplemented with 1× protease inhibitor and 1× phosphatase inhibitor and were run on polyacrylamide gels using denaturing conditions. […] Western blot bands were quantified using Image J software based on pixel intensity.
We previously made the surprising observation that a small bioactive collagen peptide containing the core amino acid sequence RGDKGE (SEQ ID NO: 1) could be generated inside a subset of M2-like activated macrophages as well as a variety of other malignant tumor cells, and then actively secreted outside the cells (11-13). Importantly, minimal levels of this soluble collagen peptide was detected in normal cells (13). […]

T1 sequence (P05106 27-788): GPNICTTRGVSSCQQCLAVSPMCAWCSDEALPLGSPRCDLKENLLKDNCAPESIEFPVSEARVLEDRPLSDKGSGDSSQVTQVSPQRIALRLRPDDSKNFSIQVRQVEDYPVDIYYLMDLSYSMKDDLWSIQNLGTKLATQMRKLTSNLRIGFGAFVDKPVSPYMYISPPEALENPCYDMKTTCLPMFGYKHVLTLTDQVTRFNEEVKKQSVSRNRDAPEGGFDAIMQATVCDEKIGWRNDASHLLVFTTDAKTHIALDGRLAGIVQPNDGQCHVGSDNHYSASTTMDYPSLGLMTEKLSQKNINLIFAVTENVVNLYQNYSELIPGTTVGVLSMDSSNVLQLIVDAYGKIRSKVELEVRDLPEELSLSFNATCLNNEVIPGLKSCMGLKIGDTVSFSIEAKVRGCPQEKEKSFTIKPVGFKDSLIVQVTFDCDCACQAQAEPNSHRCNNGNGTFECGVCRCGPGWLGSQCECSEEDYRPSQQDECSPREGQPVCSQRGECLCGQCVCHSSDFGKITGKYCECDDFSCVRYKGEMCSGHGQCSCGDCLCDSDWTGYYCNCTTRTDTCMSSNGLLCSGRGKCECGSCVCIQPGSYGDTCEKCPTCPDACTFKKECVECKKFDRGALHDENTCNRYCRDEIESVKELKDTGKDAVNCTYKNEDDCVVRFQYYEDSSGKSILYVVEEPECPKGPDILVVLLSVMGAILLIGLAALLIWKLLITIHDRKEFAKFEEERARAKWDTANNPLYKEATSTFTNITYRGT
T1 sequence (P06756 31-889 limits assumed): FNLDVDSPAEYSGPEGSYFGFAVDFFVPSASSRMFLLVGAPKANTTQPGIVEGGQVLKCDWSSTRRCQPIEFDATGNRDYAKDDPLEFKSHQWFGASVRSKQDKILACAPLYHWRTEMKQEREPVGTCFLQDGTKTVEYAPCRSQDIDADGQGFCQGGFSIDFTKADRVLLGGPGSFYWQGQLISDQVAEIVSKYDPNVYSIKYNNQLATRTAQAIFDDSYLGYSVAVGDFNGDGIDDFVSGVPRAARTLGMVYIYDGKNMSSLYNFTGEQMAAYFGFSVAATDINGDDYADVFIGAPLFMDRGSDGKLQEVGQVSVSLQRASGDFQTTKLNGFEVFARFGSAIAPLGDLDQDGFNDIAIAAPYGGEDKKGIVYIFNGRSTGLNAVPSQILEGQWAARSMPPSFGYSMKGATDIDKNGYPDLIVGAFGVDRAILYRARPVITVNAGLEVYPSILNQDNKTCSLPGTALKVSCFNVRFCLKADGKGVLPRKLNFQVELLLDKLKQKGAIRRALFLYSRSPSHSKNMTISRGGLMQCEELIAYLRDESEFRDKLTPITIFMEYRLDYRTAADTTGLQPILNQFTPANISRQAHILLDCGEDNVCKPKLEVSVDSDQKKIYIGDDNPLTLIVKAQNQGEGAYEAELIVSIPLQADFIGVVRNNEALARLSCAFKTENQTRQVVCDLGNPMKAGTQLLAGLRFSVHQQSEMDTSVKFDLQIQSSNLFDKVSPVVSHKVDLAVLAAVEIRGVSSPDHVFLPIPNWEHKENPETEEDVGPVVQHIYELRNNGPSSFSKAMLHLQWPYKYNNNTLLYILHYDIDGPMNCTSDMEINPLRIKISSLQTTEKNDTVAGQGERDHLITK
T1 sequence (P06756 891-1048 partner limits assumed): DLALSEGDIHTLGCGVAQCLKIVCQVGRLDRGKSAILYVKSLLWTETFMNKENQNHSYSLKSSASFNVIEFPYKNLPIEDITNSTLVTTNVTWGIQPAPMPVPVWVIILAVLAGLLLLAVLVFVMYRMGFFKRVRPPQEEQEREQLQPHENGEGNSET

- β3 integrin phosphorylation: enhanced β3 integrin phosphorylation
Sequence: QGPRGDKGE (CQGPRGDKGEC; Synthetic: Synthetic collagen RGD containing peptide P-2) [Peptide P2, synthetic version of the soluble RGDKGE-containing collagen peptide]
